Test results as given in patent US6372211B1, “Methods and compositions for controlling insects” (Monsanto Technolgy LLC, priority 1997, dated 2002).

Legend:
[1] = tested on: Trichoderma sp. F22844 L-lysine oxidase (Mr 56,000 protein, E.C. 1.4.3.14), native; proprotein SEQ ID NO:46; conditions: read-out: Km for lysine; lysine oxidase from F22844
T. viride lysine oxidase [2] = conditions: read-out: Km for lysine, reported, Kusakabe et al., 1980; cited from earlier work
Mr 50,000 protein = Mr 50,000 protein assay (hydrogen peroxide colorimetric); assay type: biochemical, Trichoderma sp.; conditions: hydrogen peroxide formation monitored
Description: Hydrogen peroxide appears to be the byproduct of the Mr 50,000 protein reaction. The formation of hydrogen peroxide was monitored by a colorimetric assay (Gallo, 1981). P2C was prepared by two separate methods for the initial Mr 50,000 protein assay. The two methods used for preparing P2C were
1) L-lysine with lysine oxidase and catalase; and
2) DL-pipecolic acid with D-amino acid oxidase and catalase.
P2C was isolated from the protein mixture by filtration using an Amicon filter (10 kDa cutoff) before using in the Mr 50,000 protein assay.

F22844 lysine oxidase = test: Substrate specificity of F22844 lysine oxidase; assay type: biochemical, Trichoderma sp.; conditions: lysine = 100, L-isomers
T. viride lysine oxidase [3] = conditions: data from Kusakabe et al., 1980; cited from earlier work
southern corn rootworm = test: Southern corn rootworm artificial diet bioassay; assay type: in vivo; conditions: for Mean larval wt. (mg) (+SEM) / # of survivors: Table 12, SCRW neonate, T. viride lysine oxidase 10 ppm, E. coli produced Mr 50,000 18 ppm; for Mean larval wt. (mg) (+SEM): buffer 0.68, 0.57; for # of survivors: buffer 51, 52
Description: These proteins were then purified by sizing and ion exchange chromatography. […] In both cases, no bioactivity was detected when the proteins were assayed individually but significant stunting was seen when the proteins were combined in assay.
Native-PAGE studies were effective in confirming that the Mr 56,000 and Mr 50,000 proteins were responsible for the southern corn rootworm bioactivity of F22844. The chromatographically purified Mr 56,000 and Mr 50,000 proteins were further purified by native PAGE. […] A sample containing a combination of the two proteins at concentrations of 9.7 μg/mL of Mr 56,000 and 2.5 μg/mL of Mr 50,000 yielded 89% stunting of corn rootworm larvae (Table 3). […]
(§1) These leads were not characterized further. […] Lysine oxidase from Trichoderma viride is available commercially from Sigma (St. Louis, Mo.). The enzyme was purified to a single band from this preparation and bioassayed against southern corn rootworm. Bioassays were conducted to compare the concentration responses of the T. viride lysine oxidase (±Mr 50,000 protein from F22844) with the lysine oxidase purified from F22844. The bioactivity of the T viride lysine oxidase agrees very well with the bioactivity of lysine oxidase from F22844 when bioassayed in the presence of tedanalactam synthase from F22844 (Table 10). Very similar stunting levels are seen at equivalent doses (compare Table 10 to Table 7). In addition, no bioactivity is seen with either lysine oxidase in the absence of tedanalactam synthase from F22844.
An NcoI-HindIII fragment containing the full length tedanalactam synthase cDNA gene (SEQ ID NO:40) from pMON25424 was interested into pMON6235, an E. coli expression vector containing an arabinose inducible promoter and G10 leader sequence to produce pMON25428 (FIG. 12). […] The relative migration of the expressed protein on SDS-PAGE was identical to the F22844 purified tedanalactam synthase. The recombinant tedanalactam synthase was purified in a 5 step procedure from E. coli expressing the tedanalactam synthase gene. Lysine oxidase was purified from a commercial preparation of T. viride lysine oxidase. Both the lysine oxidase and tedanalactam synthase were >95% pure by SDS-PAGE.

corn rootworm = test: Corn rootworm bioassay (species not stated); assay type: in vivo, Diabrotica spp.; conditions: Table 11, yeast recombinant lysine oxidase 14 ppm, F22844 Mr 50,000 10 ppm, alone or combined; for # of survivors: 16 wells/sample, buffer 61, 45; for Mean larval wt. (mg) (±SEM): buffer 0.94, 0.84
Description: as §1
(§2) Yeast (Saccharomyces cerevisiae) transformed with pMON25030 were grown in the presence of galactose and shown to produce enzymatically active lysine oxidase. Yeast transformed with pMON25030 had soluble lysine oxidase activity in both disrupted cell pellets and cell free culture media. […] Lysine oxidase from the yeast culture media was subsequently purified and shown to have bioactivity against corn rootworm when combined with tedanalactam synthase.

[4] = Lysine oxidase enzymatic assay of enzyme preparations; assay type: biochemical; conditions: purified lysine oxidase
Description: F22844 was identified taxonomically as a Trichoderma species.
as §2

[5] = tested on: southern corn rootworm larvae; test: Diet overlay assay with SCRW; assay type: in vivo; conditions: for Av. Wght: Tris control 2.6
Text: However, ingestion of LO69 expressing root tissue by CRW is likely to result in activation of lysine oxidase by proteolysis and subsequent insecticidal activity when the tedanalactam synthase protein is also present. […] The absence of LO activity in the proenzyme sample was confirmed by direct enzymatic assays just prior to exposure to insects.

[6] = tested on: proteases present in the midgut of southern corn rootworm; test: Activation of LO69 proenzyme by midgut extract; assay type: biochemical
Text: The lysine oxidase gene encodes a 69 kDa proenzyme which is N-terminally cleaved when expressed in Trichoderma or Saccharomyces to yield a mature and enzymatically active protein of approximately 60 kDa. To determine if the lysine oxidase-69 (LO69) proenzyme (Seq ID NO: 46) expressed in corn protoplasts can be activated by the proteases present in the midgut of southern corn rootworm, midguts were dissected from late instar larvae and the proteases extracted. Protease activity assays confirmed the presence of proteases in this extract. This extract and appropriate controls were incubated for about 22 hours at 25° C. with extracts from protoplasts electroporated with pMON25040 (i.e. the CaMV35S promoter and hsp70 intron fused to the 1.9 kb lysine oxidase gene encoding the Mr 69,000 proprotein, SEQ ID NO:45) and non-electroporated controls and assayed for lysine oxidase activity.

[7] = Table 2a, Mr 56,000 10 μg/mL, Mr 50,000 1.5 μg/mL, alone or combined, NSS = not statistically significant
[8] = Table 3, native PAGE purified, Mr 56,000 9.7 μg/mL, Mr 50,000 2.5 μg/mL, alone or combined
[9] = second table headed TABLE 2a, Mr 56,000 10 μg/mL, Mr 50,000 1.5 μg/mL, NSS = not statistically significant
[10] = each protein at 2 ppm, of larval weight vs control
[11] = single protein at 10 ppm, 50 kD activity ascribed to low level LO contamination

NCCCC[C@H](N)C(=O)O [lysine]
Km [1]: 26 µM | Km (T. viride lysine oxidase [2]): 40 µM

O=C(O)C1CCCC=N1 (centres unmarked) [P2C, Δ^1-piperideine-2-carboxylate]
substrate of Mr 50,000 protein (Mr 50,000 protein): catalyses the conversion of Δ^1-piperideine-2-carboxylate (P2C) to product I

N=C(N)NCCC[C@H](N)C(=O)O [Arginine]
Relative activity (%) (F22844 lysine oxidase): 2.6% | Relative activity (%) (T. viride lysine oxidase [3]): 6.1%

NCCCC[C@H](N)C(=O)O [Lysine]
Relative activity (%) (F22844 lysine oxidase): 100.0% | Relative activity (%) (T. viride lysine oxidase [3]): 100% | substrate of Mr 50,000 protein (Mr 50,000 protein): not substrates

N[C@@H](Cc1ccccc1)C(=O)O [Phenylalanine]
Relative activity (%) (F22844 lysine oxidase): 6.6% | Relative activity (%) (T. viride lysine oxidase [3]): 8.3%

NCCC[C@H](N)C(=O)O [Ornithine]
Relative activity (%) (F22844 lysine oxidase): 10.8% | Relative activity (%) (T. viride lysine oxidase [3]): 18.2%

O=C(O)C1CCCCN1 (centres unmarked) [Pipecolic acid]
substrate of Mr 50,000 protein (Mr 50,000 protein): not substrates

N[C@@H](Cc1c[nH]cn1)C(=O)O [Histidine]
Relative activity (%) (F22844 lysine oxidase): 5.0% | Relative activity (%) (T. viride lysine oxidase [3]): 3.8%

B1: L-lysine oxidase (protein)
chain: MDNVDFAESVRTRWARRLIREKVAKELNILTERLGEVPGIPPPNEGRFLGGGYSHDNLPSDPLYSSIKPALLKEAPRAEEELPPRKVCIVGAGVSGLYIAMILDDLKIPNLTYDIFESSSRTGGRLYTHHFTDAKHDYYDIGAMRYPDIPSMKRTFNLFKRTGMPLIKYYLDGENTPQLYNNHFFAKGVSDPYMVSVANGGTVPDDVVDSVGEKLQQAFGYYKEKLAEDFDKGFDELMLVDDMTTREYLKRGGPKGEAPKYDFFAIQWMETQNTGTNLFDQAFSESVIDSFDFDNPTKPEWYCIEGGTSLLVDAMKETLVHKVQNNKRVDAISIDLDAPDDGNMSVRIGGKDHSGYSTVFNTTALGCLDRMDLRGLNLHPTQADAIRCLHYDNSTKVALKFSYPWWIKDCGITCGGAASTDLPLRTCVYPSYNLDDTGEAVLLASYTWSQDATRIGSLVKDAPPQPPKEDELVELILQNLARLHAEHMTYEKIKEAYTGVYHAYCWANDPNVGGAFALFGPGQFSNLYPYLMRPAAGGKFHIVGEASSVHHAWIIGSLESAYTAVYQFLYKYKMWDYLRLLLERWQYGLQELETGKHGTAHLQFILGSLPKEYQVKI
notes: Mr 56,000 protein purified from Trichoderma sp; F22844 culture filtrate, identified as L-lysine oxidase
% Stunting (southern corn rootworm; [7]): NSS | % Stunting (southern corn rootworm; [8]): NSS | Mean larval wt. (mg) (+SEM) (southern corn rootworm; alone or combined): 0.48 ± 0.04 mg | # of survivors (southern corn rootworm; alone or combined): 46 | % Stunting (southern corn rootworm; [9]): NSS | # of survivors (corn rootworm): 38 | Mean larval wt. (mg) (±SEM) (corn rootworm): 0.76 ± 0.06 mg | specific activity [4]: 37 U/mg protein

B2: LO69: 69 kDa lysine oxidase proenzyme (SEQ ID NO: 46); corn protoplast extract in Table 20, purified from Saccharomyces cerevisiae in Table 21 (protein)
chain: B1 chain
Av. Wght ([5]; each protein at 2 ppm): 2.1 mg | Surv ([5]; each protein at 2 ppm, n 18): 17 | % inhibition [5, 10]: 20% | Surv ([5]; single protein at 10 ppm): 17 | % inhibition [5, 11]: 0% | Av. Wght ([5]; single protein at 10 ppm): 3.3 mg | % inhibition ([5]; single protein at 20 ppm): 0% | Av. Wght ([5]; single protein at 20 ppm): 2.8 mg | Surv ([5]; single protein at 20 ppm, n 18): 18 | Lysine oxidase Sp. Act. ([6]; BSA): 12 U/μg protein | Fold Difference ([6]; BSA, relative to heated gut extract): 1.2 | Lysine oxidase Sp. Act. ([6]; corn protoplast extract, gut extract, about 22 hours at 25° C.): 1292 U/μg protein | Lysine oxidase Sp. Act. ([6]; gut extract, protease inhibitor): 997 U/μg protein | Fold Difference ([6]; gut extract, protease inhibitor, relative to heated gut extract): 97 | Fold Difference ([6]; gut extract, relative to LO69 with heated gut extract): 130 | Lysine oxidase Sp. Act. ([6]; heated gut extract): 10 U/μg protein | Fold Difference ([6]; heated gut extract (reference)): 0

B3: Mr 50,000: Mr 50,000 protein from F22844, tedanalactam synthase converting Δ1-piperideine-2-carboxylate to tedanalactam (protein)
chain: MADEIYDVVVIGGGPIGLAAAYEAAKEGAKVVVLEQNNFFNHAGSSNDLARMFRTMYTEDYMADLAKEALALWDDLERDSGTPLRWMSGLLNFGDKDYGGDTPEGTLLGPIANLDRLGMTYQELSAKEIEARYPFKNLDPKYIGLFAPDNGLINVQLLLRTLYKLSLDYGATAKQHTKVQAIKPSNHSHYAWDVHAIRHETEAAVFKAKKIIIASGAYVNHVLKPSFDISLDLDIWEMVFSYFNCNAGPKGTIFPSMWFQFAPDKNGRSQLFYGFPALPWGPPNLARIAVDAATRRIKDPNERLTSTINPEDIADTQEFIRNHCVNVDPTIPALTSSCLQTNVFDNMFVLDFVPEKYLNGGAKDSVVVFTAGWAMKFVPMIGKALADMALKGSSPYARKEFAITRTDSATGKGIIVEGGSENRSVKSSAFVFYSPGIRFFVCRLP
Av. Wght ([5]; each protein at 2 ppm): 3.5 mg | Surv ([5]; each protein at 2 ppm, n 18): 18 | % inhibition [5, 10]: 0% | Surv ([5]; single protein at 10 ppm): 18 | % inhibition [5, 11]: 39% | Av. Wght ([5]; single protein at 10 ppm): 1.5 mg | % Stunting (southern corn rootworm; [7]): NSS | % Stunting (southern corn rootworm; [8]): NSS | Mean larval wt. (mg) (+SEM) (southern corn rootworm; alone or combined): 0.52 ± 0.03 mg | # of survivors (southern corn rootworm; alone or combined): 80 | % Stunting (southern corn rootworm; [9]): NSS | # of survivors (corn rootworm): 43 | Mean larval wt. (mg) (±SEM) (corn rootworm): 0.80 ± 0.07 mg
